The source of these data is patent publication US8962263B2, “Methods and compositions for detecting the activation state of multiple proteins in single cells” (The Board of Trustees of the Leland Stanford Junior …, priority 2001, dated 2015).

The test system of one test is ezrin. Put plainly: phosphotyrosine-protein based elisa for ezrin tyrosine phosphorylation upon ICAM-2 ligation. It counts as cell-based, human. The settings on record: Jurkat cells.
For a further test, the system named is Pyk2. Put plainly: sICAM-2 induced Pyk2 phosphorylation (phospho-tyrosine based ELISA, chemical genetic approach). The settings on record: phospho-tyrosine based ELISA. The test is classed as cell-based. The gist of the method:
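Chemical genetic approach: sICAM-2-stimulated cells treated with selected kinase/pathway inhibitors (PKC inhibitors BIM I, BIM II, staurosporine; tyrphostin A9; neomycin; piceatannol); phosphorylation status of Pyk2 and Syk measured by phospho-tyrosine ELISA.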
For orientation: ELISA stands for enzyme-linked immunosorbent assay.

The subject of another test is human naïve T-cells. Kind of test: T cell activation by CD25 and CD69 markers in human naïve T cells. The test is classed as cell-based. The following applies: combined with CD3/CD28 stimulation. The procedure: A) Intracellular detection of IL-2, of titration of CD3/CD28, vs. LFA-1, stimulus or CD3, vs. CD28, stimulus for 6, hours. Median Fluorescent intensity is plotted as a visual array. B) Bivariate analysis of CD69, and CD25 expression in unstimulated, CD3/CD28/LFA-1, (0.001, μg/ml, 1:1:1) stimulated, and CD3/CD28, (10 μg/ml) stimulated CD4, T cells. C) Bivariate plot of CD69, expression and intracellular detection of IL-2, post 12, hour stimulation of unstimulated, CD3/CD28, and CD3/CD28/LFA-1, stimulation.
Intracellular and extracellular staining was performed as described for phospho-staining (Perez and Nolan, 2002). […] Four or less color flow cytometry data acquisition was collected on a FACSCalibur machine (Beckton Dickinson, San Jose Calif.) using CELLQuest software, analyzed and presented using FlowJo software (Tree Star, San Carlos, California). […] Data were collected by FACS-Desk software and compensated, analyzed, and presented using FlowJo software. […] Ratios of intracellular flow cytometric measurements were calculated from the following equation where MFI equals mean fluorescent intensity: Log [(MFIexperimental−MFIisotype mAb)/(MFIcontrol−MFlisotype mAb)].

For a further test, the system named is p44/42 MAPK. Put plainly: phospho-p44/42 MAPK immunoblot and p44/42 MAPK kinase assay in soluble ICAM-2 treated Jurkat cells. The test is classed as cell-based, human.

Where two headings read alike, the source gives them in different places.

For the molecule `CN(C)CCCn1cc(C2=C(c3c[nH]c4ccccc34)C(=O)NC2=O)c2ccccc21` [bisindolymaleimide I], the “tyrosine phosphorylation of ezrin” value in the test on ezrin was “minor affects”. Further, in the test on Pyk2, the “sICAM-2 induced Pyk2 phosphorylation” value was “affected”.

B1: ICAM-2: biochemically purified soluble human ICAM-2 protein from retrovirally transduced NIH3T3 cells; ICAM-2-FC fusion also used (protein, UniProt P13598 25-223, looked up)
extracellular domain: KVFEVHVRPKKLAVEPKGSLEVNCSTTCNQPEVGGLETSLDKILLDEQAQWKHYLVSNISHDTVLQCHFTCSGKQESMNSNVSVYQPPRQVILTLQPTLVAVGKSFTIECRVPTVEPLDSLTLFLFRGNETLHYETFGKAAPAPQEATATFNSTADREDGHRNFSCLAVLDLMSRGGNIFHKHSAPKMLEIYEPVSDSQ
modifications: extracellular domain
notes: biochemically purified soluble human ICAM-2 protein from retrovirally transduced NIH3T3 cells; ICAM-2-FC fusion also used
Regarding B1, the “lowering of the CD3/CD28 stimulus threshold” value in the test with human naïve T-cells is listed as 10,000 fold. In addition, the “p44/42 MAPK phosphorylation and activity on ICAM-2 treatment” value in the test on p44/42 MAPK is “induced both p44/42 MAPK phosphorylation and activation”; in the test with p44/42 MAPK (listed as soluble ICAM-2) it was “induced p44/42, MAPK phosphorylation and activity”.
